Results on 5 molecules are retold here after US20140087995A1 (published 2014).

Numbered stars: 1 amine (or outer) side, 2 acyl side, 3 side chain; on linkers, the order of the positions; unused ones are H or OH. Bridge positions count the residues as written; N and C are the ends. Side chains are listed from the residue outwards. Ends that are not written are not given here. * marks the point of attachment. C20 diacid = O=C(O)CCCCCCCCCCCCCCCCCCC(=O)*; γGlu = O=C(O)[C@H](CCC(=O)[*:2])N[*:1]; AEEA = NCCOCCOCC(=O)O

Test [1] addresses T1, human amylin receptor (human calcitonin receptor co-expressed with RAMP-3; amylin 3(a) receptor) (human, UniProt P30988 25-474; O60896 24-148, limits assumed).
T1 construct: whole, on cells; Used as cell membranes prepared from Amylin 3(a)/CRE-luc BHK cells (Assay V), not as intact cells; also called hAmylin-R; hAmylinR
T1 sequence (looked up) 1: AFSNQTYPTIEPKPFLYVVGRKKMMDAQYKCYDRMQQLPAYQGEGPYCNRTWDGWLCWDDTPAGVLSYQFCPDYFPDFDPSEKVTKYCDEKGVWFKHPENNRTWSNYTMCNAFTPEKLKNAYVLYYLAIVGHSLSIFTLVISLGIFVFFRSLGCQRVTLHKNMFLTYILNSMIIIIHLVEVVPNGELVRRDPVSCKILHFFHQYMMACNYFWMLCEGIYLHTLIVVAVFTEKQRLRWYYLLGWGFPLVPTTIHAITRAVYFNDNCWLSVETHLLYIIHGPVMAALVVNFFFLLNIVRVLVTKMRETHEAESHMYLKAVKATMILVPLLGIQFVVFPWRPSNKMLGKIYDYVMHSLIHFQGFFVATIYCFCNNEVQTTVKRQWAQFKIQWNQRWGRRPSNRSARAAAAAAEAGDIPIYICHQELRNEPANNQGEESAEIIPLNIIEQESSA
T1 sequence (looked up) 2: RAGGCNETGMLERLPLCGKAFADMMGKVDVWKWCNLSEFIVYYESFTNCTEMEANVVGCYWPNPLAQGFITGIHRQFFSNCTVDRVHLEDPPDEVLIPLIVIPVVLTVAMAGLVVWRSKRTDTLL
Put plainly: ratio of hCTR binding IC50 to hAmylin-R binding IC50 (reference: human calcitonin receptor). The protocol: The resulting pellet was resuspended, homogenized and centrifuged (20.000 rpm, 15 min) in a buffer containing 20 mM Na-HEPES and 0.1 mM EDTA (pH 7.4, buffer 2). The resulting pellet was resuspended in buffer 2 and protein concentration was measured (BCA protein Assay, Pierce). The homogenate was kept cold during the whole procedure. The membranes were kept at −80° C. until use. The assay was performed in a 384 well Optiplate (PerkinElmer) in a total volume of 40 ul. Membranes were mixed with SPA beads. Final concentration of membranes 35 ng/μL final and SPA beads was 0.05 mg/well. Test-compounds were dissolved in DMSO and further diluted in assay buffer (50 mM Hepes, pH 7.4, 1 mM CaCl2, 5 mM MgCl₂, 0.1% OA and 0.02% Tween20). […] The final mixture was incubated with shaking at 400 rpm for 120 min at 25° C. prior to centrifugation (1500 rpm, 10 min). Samples were analyzed on TopCounter™ (Packard). The IC₅₀ was calculated using (one site binding competition analysis) GraphPad Prism5 as a measure of receptor affinity.
Membranes were prepared in the following way; the cells were rinsed with PBS and incubated with Versene for approximately 5 min before harvesting. The cells were flushed with PBS and the cell-suspension was centrifuged for 5 min at 1000 rpm. Cells were homogenized (Ultrathurrax) in a buffer containing 20 mM Na-HEPES and 10 mM EDTA (pH 7.4) and centrifuged at 20.000 rpm for 15 min. The resulting pellet was resuspended, homogenized and centrifuged (20.000 rpm, 15 min) in a buffer containing 20 mM Na-HEPES and 0.1 mM EDTA (pH 7.4, buffer 2). The resulting pellet was resuspended in buffer 2 and protein concentration was measured (BCA protein Assay, Pierce). The homogenate was kept cold during the whole procedure. The membranes were kept at −80° C. until use. Assay was performed in a 384 well Optiplate (PerkinElmer) in a total volume of 40 ul. Membranes were mixed with SPA beads.

Test [2] deals with T2, human calcitonin receptor (human, UniProt P30988 25-474).
T2 construct: whole, on cells; Used as cell membranes prepared from the transfected BHK cells (Assay VII), not as intact cells; also called hCTR; hCT
T2 sequence (looked up): T1 sequence (looked up) 1
Put plainly: SPA competition against 125I-calcitonin, membranes with human calcitonin receptor (Assay VII). The procedure, abridged: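 BHK hCTR membranes 35 ng/μL + SPA beads 0.05 mg/well; buffer 50 mM Hepes pH 7.4, 1 mM CaCl2, 5 mM MgCl₂, 0.1% OA, 0.02% Tween20. 120 min, 25° C., shaking. Scintillation count; IC50 by one-site binding competition.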

B1: N^ε1-[2-[2-[2-[[(4S)-4-carboxy-4-(19-carboxynonadecanoylamino)butanoyl]amino]ethoxy]ethoxy]acetyl]-[Arg17,Pro21,Pro27,Pro29,Pro34]-h-amylin (peptide)
peptide: K([AEEA-γGlu-C20 diacid])CNTATCATQRLANFLRHSSPNFGAIPSPTNVGPNTY-NH2
modifications: disulfide 2-7; N-terminus assumed
SMILES: CC[C@H](C)[C@H](NC(=O)[C@H](C)NC(=O)CNC(=O)[C@H](Cc1ccccc1)NC(=O)[C@H](CC(N)=O)NC(=O)[C@@H]1CCCN1C(=O)[C@H](CO)NC(=O)[C@H](CO)NC(=O)[C@H](Cc1c[nH]cn1)NC(=O)[C@H](CCCNC(=N)N)NC(=O)[C@H](CC(C)C)NC(=O)[C@H](Cc1ccccc1)NC(=O)[C@H](CC(N)=O)NC(=O)[C@H](C)NC(=O)[C@H](CC(C)C)NC(=O)[C@H](CCCNC(=N)N)NC(=O)[C@H](CCC(N)=O)NC(=O)[C@@H](NC(=O)[C@H](C)NC(=O)[C@@H]1CSSC[C@H](NC(=O)[C@@H](N)CCCCNC(=O)COCCOCCNC(=O)CC[C@H](NC(=O)CCCCCCCCCCCCCCCCCCC(=O)O)C(=O)O)C(=O)N[C@@H](CC(N)=O)C(=O)N[C@@H]([C@@H](C)O)C(=O)N[C@@H](C)C(=O)N[C@@H]([C@@H](C)O)C(=O)N1)[C@@H](C)O)C(=O)N1CCC[C@H]1C(=O)N[C@@H](CO)C(=O)N1CCC[C@H]1C(=O)N[C@H](C(=O)N[C@@H](CC(N)=O)C(=O)N[C@H](C(=O)NCC(=O)N1CCC[C@H]1C(=O)N[C@@H](CC(N)=O)C(=O)N[C@H](C(=O)N[C@@H](Cc1ccc(O)cc1)C(N)=O)[C@@H](C)O)C(C)C)[C@@H](C)O
notes: also called compound 56
In general, IC50 refers to the point on the concentration scale where inhibition reaches its midpoint. B1: the “Ratio hCT/hAmylin binding” value in test [1] was determined as 42.6. For the same molecule, in test [2], the concentration for half-maximal inhibition (IC50) amounted to 2.09 nM.

B2: N^ε1-[2-[2-[2-[[(4S)-4-carboxy-4-(19-carboxynonadecanoylamino)butanoyl]amino]ethoxy]ethoxy]acetyl]-[His14,Arg17,Pro21,Pro27,Pro31]-h-amylin (peptide)
peptide: K([AEEA-γGlu-C20 diacid])CNTATCATQRLAHFLRHSSPNFGAIPSSTPVGSNTY-NH2
modifications: disulfide 2-7; N-terminus assumed
SMILES: CC[C@H](C)[C@H](NC(=O)[C@H](C)NC(=O)CNC(=O)[C@H](Cc1ccccc1)NC(=O)[C@H](CC(N)=O)NC(=O)[C@@H]1CCCN1C(=O)[C@H](CO)NC(=O)[C@H](CO)NC(=O)[C@H](Cc1c[nH]cn1)NC(=O)[C@H](CCCNC(=N)N)NC(=O)[C@H](CC(C)C)NC(=O)[C@H](Cc1ccccc1)NC(=O)[C@H](Cc1c[nH]cn1)NC(=O)[C@H](C)NC(=O)[C@H](CC(C)C)NC(=O)[C@H](CCCNC(=N)N)NC(=O)[C@H](CCC(N)=O)NC(=O)[C@@H](NC(=O)[C@H](C)NC(=O)[C@@H]1CSSC[C@H](NC(=O)[C@@H](N)CCCCNC(=O)COCCOCCNC(=O)CC[C@H](NC(=O)CCCCCCCCCCCCCCCCCCC(=O)O)C(=O)O)C(=O)N[C@@H](CC(N)=O)C(=O)N[C@@H]([C@@H](C)O)C(=O)N[C@@H](C)C(=O)N[C@@H]([C@@H](C)O)C(=O)N1)[C@@H](C)O)C(=O)N1CCC[C@H]1C(=O)N[C@@H](CO)C(=O)N[C@@H](CO)C(=O)N[C@H](C(=O)N1CCC[C@H]1C(=O)N[C@H](C(=O)NCC(=O)N[C@@H](CO)C(=O)N[C@@H](CC(N)=O)C(=O)N[C@H](C(=O)N[C@@H](Cc1ccc(O)cc1)C(N)=O)[C@@H](C)O)C(C)C)[C@@H](C)O
notes: also called compound 61
As to B2, the “Ratio hCT/hAmylin binding” value in test [1] is 66.7. For the same molecule, in test [2], the IC50 is 8.11 nM.

B3: N^ε1-[2-[2-[2-[[(4S)-4-carboxy-4-(19-carboxynonadecanoylamino)butanoyl]amino]ethoxy]ethoxy]acetyl]-[Arg17,Pro21,Pro27,Pro34]-h-amylin (peptide)
peptide: K([AEEA-γGlu-C20 diacid])CNTATCATQRLANFLRHSSPNFGAIPSSTNVGPNTY-NH2
modifications: disulfide 2-7; N-terminus assumed
SMILES: CC[C@H](C)[C@H](NC(=O)[C@H](C)NC(=O)CNC(=O)[C@H](Cc1ccccc1)NC(=O)[C@H](CC(N)=O)NC(=O)[C@@H]1CCCN1C(=O)[C@H](CO)NC(=O)[C@H](CO)NC(=O)[C@H](Cc1c[nH]cn1)NC(=O)[C@H](CCCNC(=N)N)NC(=O)[C@H](CC(C)C)NC(=O)[C@H](Cc1ccccc1)NC(=O)[C@H](CC(N)=O)NC(=O)[C@H](C)NC(=O)[C@H](CC(C)C)NC(=O)[C@H](CCCNC(=N)N)NC(=O)[C@H](CCC(N)=O)NC(=O)[C@@H](NC(=O)[C@H](C)NC(=O)[C@@H]1CSSC[C@H](NC(=O)[C@@H](N)CCCCNC(=O)COCCOCCNC(=O)CC[C@H](NC(=O)CCCCCCCCCCCCCCCCCCC(=O)O)C(=O)O)C(=O)N[C@@H](CC(N)=O)C(=O)N[C@@H]([C@@H](C)O)C(=O)N[C@@H](C)C(=O)N[C@@H]([C@@H](C)O)C(=O)N1)[C@@H](C)O)C(=O)N1CCC[C@H]1C(=O)N[C@@H](CO)C(=O)N[C@@H](CO)C(=O)N[C@H](C(=O)N[C@@H](CC(N)=O)C(=O)N[C@H](C(=O)NCC(=O)N1CCC[C@H]1C(=O)N[C@@H](CC(N)=O)C(=O)N[C@H](C(=O)N[C@@H](Cc1ccc(O)cc1)C(N)=O)[C@@H](C)O)C(C)C)[C@@H](C)O
notes: also called compound 50
As to B3, in test [1], the “Ratio hCT/hAmylin binding” value came out at 36. In test [2], the IC50 was found to be 1.38 nM.

B4: N^ε1-[2-[2-[2-[[(4S)-4-carboxy-4-(19-carboxynonadecanoylamino)butanoyl]amino]ethoxy]ethoxy]acetyl]-[Arg17,Pro21,Pro27,Pro31,His35]-h-amylin (peptide)
peptide: K([AEEA-γGlu-C20 diacid])CNTATCATQRLANFLRHSSPNFGAIPSSTPVGSHTY-NH2
modifications: disulfide 2-7; N-terminus assumed
SMILES: CC[C@H](C)[C@H](NC(=O)[C@H](C)NC(=O)CNC(=O)[C@H](Cc1ccccc1)NC(=O)[C@H](CC(N)=O)NC(=O)[C@@H]1CCCN1C(=O)[C@H](CO)NC(=O)[C@H](CO)NC(=O)[C@H](Cc1c[nH]cn1)NC(=O)[C@H](CCCNC(=N)N)NC(=O)[C@H](CC(C)C)NC(=O)[C@H](Cc1ccccc1)NC(=O)[C@H](CC(N)=O)NC(=O)[C@H](C)NC(=O)[C@H](CC(C)C)NC(=O)[C@H](CCCNC(=N)N)NC(=O)[C@H](CCC(N)=O)NC(=O)[C@@H](NC(=O)[C@H](C)NC(=O)[C@@H]1CSSC[C@H](NC(=O)[C@@H](N)CCCCNC(=O)COCCOCCNC(=O)CC[C@H](NC(=O)CCCCCCCCCCCCCCCCCCC(=O)O)C(=O)O)C(=O)N[C@@H](CC(N)=O)C(=O)N[C@@H]([C@@H](C)O)C(=O)N[C@@H](C)C(=O)N[C@@H]([C@@H](C)O)C(=O)N1)[C@@H](C)O)C(=O)N1CCC[C@H]1C(=O)N[C@@H](CO)C(=O)N[C@@H](CO)C(=O)N[C@H](C(=O)N1CCC[C@H]1C(=O)N[C@H](C(=O)NCC(=O)N[C@@H](CO)C(=O)N[C@@H](Cc1c[nH]cn1)C(=O)N[C@H](C(=O)N[C@@H](Cc1ccc(O)cc1)C(N)=O)[C@@H](C)O)C(C)C)[C@@H](C)O
notes: also called compound 57
Take B4: in test [1], the “Ratio hCT/hAmylin binding” value is 133. Also, the IC50 in test [2] was 15.3 nM.

B5: N^ε1-[2-[2-[2-[[(4S)-4-carboxy-4-(19-carboxynonadecanoylamino)butanoyl]amino]ethoxy]ethoxy]acetyl]-[Arg17,Pro21,Pro27,Pro34,His35]-h-amylin (peptide)
peptide: K([AEEA-γGlu-C20 diacid])CNTATCATQRLANFLRHSSPNFGAIPSSTNVGPHTY-NH2
modifications: disulfide 2-7; N-terminus assumed
SMILES: CC[C@H](C)[C@H](NC(=O)[C@H](C)NC(=O)CNC(=O)[C@H](Cc1ccccc1)NC(=O)[C@H](CC(N)=O)NC(=O)[C@@H]1CCCN1C(=O)[C@H](CO)NC(=O)[C@H](CO)NC(=O)[C@H](Cc1c[nH]cn1)NC(=O)[C@H](CCCNC(=N)N)NC(=O)[C@H](CC(C)C)NC(=O)[C@H](Cc1ccccc1)NC(=O)[C@H](CC(N)=O)NC(=O)[C@H](C)NC(=O)[C@H](CC(C)C)NC(=O)[C@H](CCCNC(=N)N)NC(=O)[C@H](CCC(N)=O)NC(=O)[C@@H](NC(=O)[C@H](C)NC(=O)[C@@H]1CSSC[C@H](NC(=O)[C@@H](N)CCCCNC(=O)COCCOCCNC(=O)CC[C@H](NC(=O)CCCCCCCCCCCCCCCCCCC(=O)O)C(=O)O)C(=O)N[C@@H](CC(N)=O)C(=O)N[C@@H]([C@@H](C)O)C(=O)N[C@@H](C)C(=O)N[C@@H]([C@@H](C)O)C(=O)N1)[C@@H](C)O)C(=O)N1CCC[C@H]1C(=O)N[C@@H](CO)C(=O)N[C@@H](CO)C(=O)N[C@H](C(=O)N[C@@H](CC(N)=O)C(=O)N[C@H](C(=O)NCC(=O)N1CCC[C@H]1C(=O)N[C@@H](Cc1c[nH]cn1)C(=O)N[C@H](C(=O)N[C@@H](Cc1ccc(O)cc1)C(N)=O)[C@@H](C)O)C(C)C)[C@@H](C)O
notes: also called compound 58
Take B5: the “Ratio hCT/hAmylin binding” value in test [1] came out at 109. For the same molecule, the IC50 in test [2] turned out to be 9.63 nM.
